Experiment: label from the status in PepcDB records

## MGHHHHHHSHAESHLQSSLITASQFFEIWLHFDADGSGYLEGKELQNLIQELQQARKKAGLELSPEMKTFVDQYGQRDDGKIGIVELAHVLPTEENFLLLFRCQQLKSCEEFMKTWRKYDTDHSGFIETEELKNFLKDLLEKANKTVDDTKLAEYTDLMLKLFDSNNDGKLELTEMARLLPVQENFLLKFQGIKMCGKEFNKAFELYDQDGNGYIDENELDALLKDLCEKNKQDLDINNITTYKKNIMALSDGGKLYRTDLALILCAGDN
  protein production: not failed

## MEVSKIRIHDLPEEERPRERLIKNGPESLSNAELLGIVLRTGSREENVISLCSRILMEYNIKQLSLANVSKLMQVNGIGKAKAAQIAAVFELARRLETFVEEPKRKISSPKDVYTLMYPKMREQKKEKFITLYLDTKNQILKEEVVSIGSLNASIVHPREVFKSALMESSASVIMVHNHPSGDPSPSREDIMVTEKLVEGGKLLGIDILDHIIIGDGRYVSLKDEGFVK
  protein production: not failed

## MPIMGSSVYITVELAIAVLAILGNVLVCWAVWLNSNLQNVTNYFVVSLAAADIAVGVLAIPFAITISTGFCAACHGCLFIACFVLVLTQSSIFSLLAIAIDRYIAIRIPLRYNGLVTGTRAKGIIAICWVLSFAIGLTPMLGWNNCGQPKEGKNHSQGCGEGQVACLFEDVVPMNYMVYFNFFACVLVPLLLMLGVYLRIFLAARRQLKQMESQPLPGERARSTLQKEVHAAKSLAIIVGLFALCWLPLHIINCFTFFCPDCSHAPLWLMYLAIVLSHTNSVVNPFIYAYRIREFRQTFRKIIRSHVLRQQEPFKAAGTSARVLAAHGSDGEQVSLRLNGHPPGVWANGSAPHPERRPNGYALGLVSGGSAQESQGNTGLPDVELLSHELKGVCPEPPGLDDPLAQDGAGVS
  protein production: not failed

## MARMGGKKHLKALVAPKFWPILRKEYKWAVKPSPGPHPIERCFPLLIIVRDILGYAKTAREARKLISEGHFKVDGRVRKNYKYPVGLMDVIEIVDTGETYRVIPVPVKVLGLIEIDKEEAKYKLSRIENKTTVKGGHIQLNLHDGRNVLIKVSDPKNPVEDIYKTLGTLQISIPEQQILNYIPLDEGTLVIISGGRNVGRVGKVVSIHKGIRRHRSIVTIEDKHGNKFQTSLTYVFPIGKEEPLIKLPEGAW
  protein production: failed

## MIKYLIEKEFKQLLRNSFLPRLIFIFPCMIMLLMPWAANLEIKNIRMNIIDNDHSVISRRLVDKITASTYFQTTALPDSYEKGMEAIEAGTADLLLEIPRGFEKDWVNGGAANVLLAVNAVNGTKGGLGSSYLSAIVNDYGEELRTESGTTSFSADGNLPRIDILTQNLFNARLDYKLFMVPALMVMLLTMLCGFLPALNIVGEKEAGTIEQINVTPVGKFTFILAKLIPYWLIGFVVLTLCFVLAWTLYGIFPVGHFWVIYCFSIVFVLAVSGLGLVISNHSATMQQAMFVMWFCMLILILMSGLFTPIRSMPEWAQWITMLNPLKYFMQVMRMVYLKGSGFIDLLPQLGALLAFALLFNVWAVKSYRKSG
  protein production: failed

## MVHDSALPFDALPMPPQGREGFEECPYLDSQWVADTNGQRMTGQGVDTRFDTPACVFWSYPEAPQATVMVRHMPSEEEAIRVVDWAAPIDTTEPAEEPDGWSGGRAGHEEGAVYAVQKGPVAVVVWSNQQQSLKAELMAKEAIARLGL
  protein production: not failed

## MMGDSVIYYVEQADEPVNRADERARKTFKYFWRELFWERRRIISALDFAMVKVPFFQDGEDGEICEHMWIDDIYFDGLYIYGVLNNEPGELTNVEQGESVCVPVDDISDWMFVCNGIPYGGFTIQAMRGQMTEEERTEHDAAWGIDFGDPGQILLVYEEKEHPENLEEHPMCRNCIDDFRQQLSQNSDYLREQDEDGYTPLHHEAIAGNALMVQAMLEYGANPASTTSEGYTALDFACLTGWQNVADLLEPRH
  protein production: failed

## KIGKHTIKFPIFQGGMGVGISWDELAGNVAKEGALGVISAVGTGYYKNMRFVERIVAKKPFEALNFYSKKALNEIFANARKICGNNPLGANILYAINDYGRVLRDSCEAGANIIITGAGLPTNMPEFAKDFSDVALIPIISSAKALKILCKRWSDRYKRIPDAFIVEGPLSGGHQGFKYEDCFKEEFRLENLVPKVVEASKEWGNIPIIAAGGIWDRKDIDTMLSLGASGVQMATRFLGTKECDAKVYADLLPTLKKEDILLIKSPVGYPARAINTGVIKRIEEGNAPKIACVSNCVAPCNRGEEAKKVGYCIADGLGRSYLGNREEGLYFTGANGYRVDKIISVHELIK
  protein production: failed

## MDRNGANMLDGRVESDAKGSFRKDYTKMENNNNGANISDGIYRIIRSFKSFSHFFIRYEEETKEREAEMEIGFPTDVKHLSHIGVDGTMTTFDNTSSSFPFSGFHLTGTVV
  protein production: failed

## MANEGGQDAGDEYFADLDYIEVAEQLKEGYESEVDHSDPDAEEDNGGPDAEDDDDFRPNYHYQRKIKRSSRSGSTQNSSTQSSELDSQERAVINFNPNADLDET
  protein production: failed

## MEDFYLNSRGLAGYFEAQWFDKFVEDKQVDAITSESKLVPLSFAKSSHCSQVADFITQAVSKNGKPPHALLGVGAALGRNYYELVQRLDSLKQATLVEPSGMLLNGLKQLLVEEQQVELTYIHGLNTLKTVEVDNRELVQNCAHVDLELINQPLEKDTVSKFYDLVVCLNVLDQCESPLRVINALKQATQIGGVLVVSCTYQWNAKHIKDRAEAVDDIKAYFGEDWRFVSEAEHEYRMRFNERYAMQFLSHVVAYVRTT
  protein production: failed

## MTEPTHKKQFSLRTAVMLPFIAVLLVTLSIVFYTQNNSYEKLVGDVSEKVLASYTQNTHADLNIFLNAPNFAVKSMVNQIQRYQMYHPNDTKQLQQFLKDSLEGIYTGLEQMDVLSFGGEKKEYIGFRREPNASLSLMLQDKRTNDDLIIYRGSEMSDNIRTVIANYDPRSRPWYKPAATTFKPSWSKIYTNADEKKEITISTMHPVFYDEDFIGVFAADVKLDSFNKFLSQETKHTKGVIYLIDDQQRLIAHSSVGSVLSIGTQNSPVGSRLFAVESCDETIQQSATYIKNNQLINNKNNDAEVFSFYYKGERYFSQITPYIDGNNLNWYIVISISESDLLGHLQEEQRRGLFFGIVLAAIGLIVGVYLVTQVTKPIFTTANAARNIASGNWNNNVEAQGSIYETTLLMNAFNDMTNKLQSSFDAMRQQITFDSLTQVLSRQGLIEQCRIMLDKKEHYEQGLLVIGINNFRDINDSFGILEGDQLLKNISDRLQCSFAHDNIAIARVGGDEFALFFSKLDDVEQLKQYARDMEGCFMTPFRVASNNSLLSISTGLVYGDLSCDSMTLWLRNASIALGQAKKNNLNMSLYTPEMAEASLHKANMTAELSLAIKNKELVPFYQPIIDIKSGKTIGAEALIRWLSPQRGMVSPLDFIPLAEENGMIIPMGSQVLTQACLDTVERIDQGLWPADFHMHVNLSVCQLTQNNFLDELKAVLHNTSMAPENLTLEITESRLVNHDNSTINTMQKIRDLGVQIAIDDFGTGYSSLAYIHKLPFDVLKVDRSFIKDLTAENIDSSIAAAVCNMTQGFDITLVAEGIETQEQAKLLASLNYHHAQGFLYSRPIPLEDWPTE
  protein production: failed

## MIATTSQQSFNLLRTLAVQKASDFADEFYIYMLKDQEASLFLSSQQVHDRLHGSMSKWIADILTNTGDSLADLINHQKKIGQIHARIGIPVDLVERGARRLKWHLYEHIAQVADDKALCFDAMRFASISMDIAIEIMSKTYSQSHDLEHHHHHH
  protein production: failed

## MQQMNSRLKLTMAVALTAIVLLAGCASTPDWPVSARDNTKPVYSEKLLEQVPFYPQEKYQCGPASLAMMLNAQGLATNPDILKELVYLPGKEGSLQVEMVAGARAHDMLVYRLEPEPEAILAEVEAGNPVLVMQNLRLSWWPQWHFAVVVGYDSTEQVFILNTDTRRHYEMPYKVFYNTWSKAERWAAVILPPDQTPASAEMLPYLQAAHDLETTGHTLAAQRAYQTAITRWPEQPTPLMANANLQYQLGHFQNAVGSFLRVVEKFPGFSEGWNNLAIALNDAGCPARARQASECAAGLAPKRFKPLQDEARSHAADAAACPQIPACPSNAH
  protein production: failed

## MIRKLMICIAVLVGFCPMAWGTVDDVPNPKTYDADNWVSDPDHILDSETKNKINDILQQLEDSLTIEVAVVALNSIGEEEPHEFAVTLFNLWGVGKAKDDNGLLILLTRDIRDITFKTGYGLEGVLPDAICKRIQMETMVPHLRENDWNTGMLEGVKAVAAVLYGSDYQAAPPEAWIKKFRRTTPSLVFIVFALMLILINWLVWKSAVHRMTPKDEGTEAALALLATRNPFTARTLLGLCWLVPVWPAMLGIACWYFGIQKQKTLRRSRTCPKCNRETLREIPLHELIKDTKRLTESERKETELKTAYIRIYRCSACSEEVKIRIPLEKDGYECCPSCGHMTLHKEEKYRTIIKATTSSEGLMEARHRCMYCDAEYMVGYTIPKINPSSRRSGGSGGGGGGSFGGGSSGGGGSSSRF
  protein production: failed

## MRRREGHGTDSEMGQGPVRESQSSDPPALQFRISEYKPLNMAGVEQPPSPELRQEGVTEYEDGGAPAGDGEAGPQQAEDHPQNPPEDPNQDPPEDDSTCQCQACGPHQAAGPDLGSSNDGCPQLFQERSVIVENSSGSTSASELLKPMKKRKRREYQSPSEEESEPEAMEKQEEGKDPEGQPTASTPESEEWSSSQPATGEKKECWSWESYLEEQKAITAPVSLFQDSQAVTHNKNGFKLGMKLEGIDPQHPSMYFILTVAEVCGYRLRLHFDGYSECHDFWVNANSPDIHPAGWFEKTGHKLQPPKGYKEEEFSWSQYLRSTRAQAAPKHLFVSQSHSPPPLGFQVGMKLEAVDRMNPSLVCVASVTDVVDSRFLVHFDNWDDTYDYWCDPSSPYIHPVGWCQKQGKPLTPPQDYPDPDNFCWEKYLEETGASAVPTWAFKVRPPHSFLVNMKLEAVDRRNPALIRVASVEDVEDHRIKIHFDGWSHGYDFWIDADHPDIHPAGWCSKTGHPLQPPLGPREPSSASPGGCPPLSYRSLPHTRTSKYSFHHRKCPTPGCDGSGHVTGKFTAHHCLSGCPLAERNQSRLKAELSDSEASARKKNLSGFSPRKKPRHHGRIGRPPKYRKIPQEDFQTLTPDVVHQSLFMSALSAHPDRSLSVCWEQHCKLLPGVAGISASTVAKWTIDEVFGFVQTLTGCEDQARLFKDEARIVRVTHVSGKTLVWTVAQLGDLVCSDHLQEGKGILETGVHSLLCSLPTHLLAKLSFASDSQY
  protein production: failed

## MGVFLDKSIKDVVDGLNVRYFLPDIQREYVWLKKADEKKIEQLFDSILRGYPIGSFLFWKLQKEDIAKSDEQDSDKLNFQLYQFITNYDVRKPHNEKIRIEQINRDDLYIVANSV
  protein production: failed

From a protein production outcome set (Wang et al. 2014)
